Test in all cases: two-hybrid
In experiment [1] the target is Gal4 binding domain Iqg1p fusion protein, Iqg1p (1–1495) (S. cerevisiae) (UniProt Q12280).
Experiment [2] has as its target Gal4 binding domain fusion of Iqg1p (295–823) (S. cerevisiae) (UniProt Q12280).
In experiment [3] the target is Gal4 binding domain fusion of Iqg1p (1–823) (S. cerevisiae) (UniProt Q12280).

In the case of “Cdc12p in pGAD-C2 (from UniProt P32468 1-407) (natural protein)”, in experiment [1], the beta-galactosidase activity was 23 Miller units.

As for “Myosin light chain protein Mlc1p in pGAD-C2 (from UniProt P53141 1-149) (natural protein)”, the beta-galactosidase activity came to 98.7 Miller units in experiment [1], 408 Miller units in experiment [2] and 107 Miller units in experiment [3].

For the origin of these results see PMC2173104.
